These results are taken from IntAct's records for PubMed 29039417.

B1: Protein PTHB1 (Homo sapiens), Q3SYG4 (parent)
chain: MSLFKARDWWSTILGDKEEFDQGCLCLANVDNSGNGQDKIIVGSFMGYLRIFSPHPAKTGDGAQAEDLLLEVDLRDPVLQVEVGKFVSGTEMLHLAVLHSRKLCVYSVSGTLGNVEHGNQCQMKLMYEHNLQRTACNMTYGSFGGVKGRDLICIQSMDGMLMVFEQESYAFGRFLPGFLLPGPLAYSSRTDSFLTVSSCQQVESYKYQVLAFATDADKRQETEQQKLGSGKRLVVDWTLNIGEQALDICIVSFNQSASSVFVLGERNFFCLKDNGQIRFMKKLDWSPSCFLPYCSVSEGTINTLIGNHNNMLHIYQDVTLKWATQLPHIPVAVRVGCLHDLKGVIVTLSDDGHLQCSYLGTDPSLFQAPNVQSRELNYDELDVEMKELQKIIKDVNKSQGVWPMTEREDDLNVSVVVSPNFDSVSQATDVEVGTDLVPSVTVKVTLQNRVILQKAKLSVYVQPPLELTCDQFTFEFMTPDLTRTVSFSVYLKRSYTPSELEGNAVVSYSRPTDRNPDGIPRVIQCKFRLPLKLICLPGQPSKTASHKITIDTNKSPVSLLSLFPGFASQSDDDQVNVMGFHFLGGARITVLASKTSQRYRIQSEQFEDLWLITNELILRLQEYFEKQGVKDFACSFSGSIPLQEYFELIDHHFELRINGEKLEELLSERAVQFRAIQRRLLARFKDKTPAPLQHLDTLLDGTYKQVIALADAVEENQGNLFQSFTRLKSATHLVILLIALWQKLSADQVAILEAAFLPLQEDTQELGWEETVDAAISHLLKTCLSKSSKEQALNLNSQLNIPKDTSQLKKHITLLCDRLSKGGRLCLSTDAAAPQTMVMPGGCTTIPESDLEERSVEQDSTELFTNHRHLTAETPRPEVSPLQGVSE
partner: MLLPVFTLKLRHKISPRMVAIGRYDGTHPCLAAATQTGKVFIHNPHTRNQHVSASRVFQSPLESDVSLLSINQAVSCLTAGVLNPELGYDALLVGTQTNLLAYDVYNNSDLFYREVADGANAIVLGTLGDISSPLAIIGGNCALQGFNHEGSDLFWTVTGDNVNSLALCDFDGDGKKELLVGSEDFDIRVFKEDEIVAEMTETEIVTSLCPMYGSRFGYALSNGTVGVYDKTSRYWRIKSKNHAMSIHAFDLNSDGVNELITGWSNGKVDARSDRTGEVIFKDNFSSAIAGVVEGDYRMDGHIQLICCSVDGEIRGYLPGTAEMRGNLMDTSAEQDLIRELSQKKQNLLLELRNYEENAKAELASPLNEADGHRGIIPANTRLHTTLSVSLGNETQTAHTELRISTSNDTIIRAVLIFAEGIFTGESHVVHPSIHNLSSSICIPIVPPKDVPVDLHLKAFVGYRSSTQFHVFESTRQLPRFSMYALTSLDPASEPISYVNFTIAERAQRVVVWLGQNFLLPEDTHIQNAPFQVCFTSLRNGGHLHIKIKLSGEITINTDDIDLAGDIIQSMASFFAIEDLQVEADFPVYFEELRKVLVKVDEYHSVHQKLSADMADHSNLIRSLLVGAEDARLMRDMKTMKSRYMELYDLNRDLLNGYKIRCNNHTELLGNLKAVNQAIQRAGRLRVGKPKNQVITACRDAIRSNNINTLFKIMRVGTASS

Variants of B1 are the subject of the assay. Particulars: with bbs2_human BBS2, Q9BXC9.
Consider R510K, for which the “effect of a mutation on the interaction” value is listed as “with no effect”.

For R510A, the “effect of a mutation on the interaction” value was “with no effect”. With D480A the entry was “with no effect”. Consider D480E, for which the “effect of a mutation on the interaction” value was “with no effect”. On to D480K, for which the “effect of a mutation on the interaction” value was “with no effect”. With S507E the entry was “with no effect”; with S507A, “with no effect”; with S507K, “with no effect”. As for Y495A, the entry is “with no effect”; as for Y495E, “with no effect”. With Y495K the entry was “with no effect”; with F527A, “with no effect”.

Regarding F527E, the “effect of a mutation on the interaction” value is reported as “with no effect”. Regarding F527K, the “effect of a mutation on the interaction” value is on record as “with no effect”.

Consider S509K, for which the “effect of a mutation on the interaction” value was “with no effect”.

As for S509E, the “effect of a mutation on the interaction” value is listed as “with no effect”. Consider S509A, for which the “effect of a mutation on the interaction” value is “with no effect”. Take K532A: the “effect of a mutation on the interaction” value is given as “with no effect”. For the variant R483E, the “effect of a mutation on the interaction” value is reported as “with no effect”.

As to R483A, the “effect of a mutation on the interaction” value is recorded as “with no effect”. Take R483K: the “effect of a mutation on the interaction” value is given as “with no effect”. As for R521T, the entry is “disrupting interaction strength”; as for R521E, “with no effect”; as for R521A, “with no effect”. With R521K the entry was “with no effect”; with V522K, “with no effect”. As for V522E, the “effect of a mutation on the interaction” value was “with no effect”. Take V522A: the “effect of a mutation on the interaction” value is given as “with no effect”. With P516A the entry was “with no effect”; with P516K, “with no effect”. As for P516E, the entry is “with no effect”; as for E499A, “with no effect”. For E499K, the “effect of a mutation on the interaction” value was “with no effect”. With E475A the entry was “with no effect”; with E475K, “with no effect”; with R493K, “with no effect”. With R493E the entry was “with no effect”. Turning to R493A, the “effect of a mutation on the interaction” value is reported as “with no effect”. As for Q471E, the entry is “with no effect”; as for Q471K, “with no effect”; as for F474K, “with no effect”. With F474E the entry was “with no effect”; with F474A, “with no effect”. Regarding G518E, the “effect of a mutation on the interaction” value is given as “with no effect”. G518K: the “effect of a mutation on the interaction” value was “with no effect”.

Consider G518A, for which the “effect of a mutation on the interaction” value is reported as “with no effect”. With Y490E the entry was “with no effect”. Consider Y490K, for which the “effect of a mutation on the interaction” value is listed as “with no effect”.

In the case of Y490A, the “effect of a mutation on the interaction” value is recorded as “with no effect”. As for D513K, the entry is “with no effect”. With D513E the entry was “with no effect”.

For the variant D513A, the “effect of a mutation on the interaction” value is “with no effect”.

Turning to R514A, the “effect of a mutation on the interaction” value is reported as “with no effect”. As for R514E, the entry is “with no effect”.

In the case of R514K, the “effect of a mutation on the interaction” value is “with no effect”. Regarding L529K, the “effect of a mutation on the interaction” value is “with no effect”. With L529E the entry was “with no effect”; with L529A, “with no effect”. With S494K the entry was “with no effect”; with S494A, “with no effect”; with S494E, “with no effect”.

As for N515E, the “effect of a mutation on the interaction” value is on record as “with no effect”. Take N515A: the “effect of a mutation on the interaction” value is recorded as “with no effect”. On to N515K, for which the “effect of a mutation on the interaction” value is “with no effect”. As for G502E, the entry is “with no effect”; as for G502K, “with no effect”. As for G502A, the entry is “with no effect”. With L491K the entry was “with no effect”. L491E: the “effect of a mutation on the interaction” value is recorded as “with no effect”. Consider L491A, for which the “effect of a mutation on the interaction” value is reported as “with no effect”. With Y508K the entry was “with no effect”; with Y508E, “with no effect”; with Y508A, “with no effect”. As for P479L, the entry is “disrupting interaction strength”. With P479E the entry was “with no effect”; with P479A, “with no effect”; with P479K, “with no effect”. In the case of T482K, the “effect of a mutation on the interaction” value was “with no effect”.

For the variant T482A, the “effect of a mutation on the interaction” value is reported as “with no effect”.

As to T482E, the “effect of a mutation on the interaction” value was “with no effect”. Turning to S488A, the “effect of a mutation on the interaction” value is listed as “with no effect”.

Regarding S488K, the “effect of a mutation on the interaction” value is “with no effect”.

Regarding S488E, the “effect of a mutation on the interaction” value is “with no effect”.

For F476A, the “effect of a mutation on the interaction” value is recorded as “with no effect”.

In the case of F476E, the “effect of a mutation on the interaction” value is given as “with no effect”. As for F476K, the entry is “with no effect”; as for L531A, “with no effect”. With L531E the entry was “with no effect”. As for L531K, the entry is “with no effect”.

In the case of T484A, the “effect of a mutation on the interaction” value was “with no effect”. In the case of T484K, the “effect of a mutation on the interaction” value is reported as “with no effect”. As for T484E, the entry is “with no effect”.
